Results as given in PMC9458431, “2′-O-Methylation of the second transcribed nucleotide within the mRNA 5′ cap impacts the protein production level in a cell-specific manner and contributes to RNA immune evasion”.

Columns and labels:
Details in all cases: protein: recombinant
eIF4E (murine) [1] = biological target: T1, eIF4E (murine) (Mus musculus, UniProt P63073 28-217); test: MST competition; vs m7Gp5OC3(5)FAM; not destabilized by m6A; MST: 50 mM HEPES-KOH pH 7.2, 100 mM KCl, 0.5 mM EDTA, 0.05% Tween-20, 25 C, 50 nM eIF4E, 10 nM probe; pull-down: 20 mM Tris-HCl pH 7.4, 150 mM NaCl, 2 mM MgCl2, 2 mM DTT, 0.2% IGEPAL, 4 C
eIF4E (murine) [2] = biological target: T1, eIF4E (murine); test: MST competition; vs 10 nM m7Gp5OC3(5)FAM; KD,app only in figure; MST: 50 mM HEPES-KOH pH 7.2, 100 mM KCl, 0.5 mM EDTA, 0.05% Tween-20, 25 C, 50 nM eIF4E, 10 nM probe; pull-down: 20 mM Tris-HCl pH 7.4, 150 mM NaCl, 2 mM MgCl2, 2 mM DTT, 0.2% IGEPAL, 4 C
eIF4E (murine) [3] = biological target: T1, eIF4E (murine); test: MST competition; vs m7Gp5OC3(5)FAM; as cap0(A); MST: 50 mM HEPES-KOH pH 7.2, 100 mM KCl, 0.5 mM EDTA, 0.05% Tween-20, 25 C, 50 nM eIF4E, 10 nM probe; pull-down: 20 mM Tris-HCl pH 7.4, 150 mM NaCl, 2 mM MgCl2, 2 mM DTT, 0.2% IGEPAL, 4 C

T1 sequence (P63073 28-217): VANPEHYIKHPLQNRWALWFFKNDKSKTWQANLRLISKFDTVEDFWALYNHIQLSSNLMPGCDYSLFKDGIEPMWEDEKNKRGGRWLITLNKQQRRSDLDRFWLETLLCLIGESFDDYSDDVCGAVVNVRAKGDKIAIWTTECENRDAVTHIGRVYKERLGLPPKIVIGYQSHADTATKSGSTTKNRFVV

AGGGGAAGCGGGCAUGCGGCCAGCCA (ssRNA, m7Gppp-m6ApGm) [cap2-1(m6A) RNA]: binds (eIF4E (murine) [1]).

AGGGGAAGCGGGCAUGCGGCCAGCCA (ssRNA, m7Gppp-A) [cap0(A) RNA]: binds (eIF4E (murine) [2]).

AGGGGAAGCGGGCAUGCGGCCAGCCA (ssRNA, m7Gppp-Am (2'-O-Me at nt 1)) [cap1(A) RNA]: binds (eIF4E (murine) [3]).

AGGGGAAGCGGGCAUGCGGCCAGCCA (ssRNA, m7Gppp-AmpGm (2'-O-Me at nt 1 and 2)) [cap2(A) RNA]: binds (eIF4E (murine) [3]).

AGGGGAAGCGGGCAUGCGGCCAGCCA (ssRNA, m7Gppp-ApGm (2'-O-Me at nt 2 only)) [cap2-1(A) RNA]: binds (eIF4E (murine) [3]).
